84 variants from the RNAGym collection of RNA variant scans (doi:10.1093/molbev/msab373) can be followed below.

First the molecules themselves.
B1: Azoarcus group I ribozyme (parent)
chain: GUGCCUUGCGCCGGGAAACCACGCAAGGGAUGGUGUCAAAUUCGGCGAAACCUAAGCGCCCGCCCGGGCGUAUGGCAACGCCGAGCCAAGCUUCGGCGCCUGCGCCGAUGAAGGUGUAGAGACUAGACGGCACCCACCUAAGGCAAACGCUAUGGUGAAGGCAUAGUCCAGGGAGUGGCGAAAGUCACACAAACCGG

The series covers variants of B1. Briefly: reverse-splicing fitness (ratio to wild type); higher = more active; in vitro selection; Mg2+ level not given. In a few lines:
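An in vitro group I ribozyme library with randomized positions was T7-transcribed and gel-purified. In triplicate, 10 pmol RNA in EPPS pH 7.5 was reacted with 50 pmoles of a 30-nt RNA substrate for 1 h at 37 °C across several added MgCl2 levels (1–48 mM), then stopped with EDTA. Products were reverse transcribed from a substrate-complementary primer, PCR-amplified and sequenced (HiSeq 4000). Fitness is a variant's read proportion after selection over that before, normalised to wild type.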
Consider C82G A111U A120C A145C, for which the reverse-splicing fitness was found to be 0.0408.

With C82G A111G C169U U176C, the reverse-splicing fitness stood at 0.0177.

Regarding C82G A111G C169U U176A, the reverse-splicing fitness is 0.0155.

As to C82G A111G C169U U176G, the reverse-splicing fitness was determined as 0.00625.

With C82G A111U A120C A145G C150U C169U U176G, the reverse-splicing fitness came to 0.00687.

With C82G A111U A120C A145G C150U C169U U176A, the reverse-splicing fitness was determined as 0.0137.

For C82G A111U A120C A145G C150U C169U U176C, the reverse-splicing fitness turned out to be 0.0146.

Turning to C82G A111G C150U U176C, the reverse-splicing fitness came out at 0.144.

As for C82G A111G C150U U176G, the reverse-splicing fitness came to 0.0512.

Take C82G A111G C150U U176A: the reverse-splicing fitness worked out at 0.128.

Turning to C82G A111U A120C A145U C169U, the reverse-splicing fitness was determined as 0.0143.

In the case of C82G A111U A120C A145U C169A, the reverse-splicing fitness was 0.00897.

In the case of C82G A111U A120C A145U C169G, the reverse-splicing fitness turned out to be 0.00981.

Turning to C82G A111U, the reverse-splicing fitness turned out to be 0.387.

For the variant C82G A111G U176G, the reverse-splicing fitness is 0.0956.

Take C82G A111G U176A: the reverse-splicing fitness was determined as 0.277.

As for C82G A111G U176C, the reverse-splicing fitness came out at 0.279.

For the variant C82G A111U A120C A145U C150G C169G U176C, the reverse-splicing fitness stood at 0.007.

Consider C82G A111U A120C A145U C150G C169G U176G, for which the reverse-splicing fitness stood at 0.00592.

Regarding C82G A111U A120C A145U C150G C169G U176A, the reverse-splicing fitness turned out to be 0.00838.

As for C82G A111U A120C A145U C150G C169A U176A, the reverse-splicing fitness is 0.0121.

As to C82G A111U A120C A145U C150G C169A U176C, the reverse-splicing fitness turned out to be 0.0107.

Consider C82G A111U A120C A145U C150G C169A U176G, for which the reverse-splicing fitness was determined as 0.00704.

For C82G A111U A120C A145C C150A C169A, the reverse-splicing fitness was 0.01.

In the case of C82G A111U A120C A145C C150A C169G, the reverse-splicing fitness was 0.00886.

For C82G A111U A120C A145C C150A C169U, the reverse-splicing fitness was 0.01.

In the case of C82G A111U A120C C150A C169G U176C, the reverse-splicing fitness worked out at 0.0267.

Consider C82G A111U A120C C150A C169G U176A, for which the reverse-splicing fitness worked out at 0.0181.

Regarding C82G A111U A120C C150A C169G U176G, the reverse-splicing fitness is 0.00701.

Consider C82G A111U A120C C169U U176G, for which the reverse-splicing fitness came out at 0.00561.

Turning to C82G A111U A120C C169U U176C, the reverse-splicing fitness came out at 0.0166.

C82G A111U A120C C169U U176A: the reverse-splicing fitness turned out to be 0.0163.

Regarding C82G A111U A120C A145G C169G U176G, the reverse-splicing fitness came to 0.00543.

In the case of C82G A111U A120C A145G C169G U176A, the reverse-splicing fitness was found to be 0.0187.

As to C82G A111U A120C A145G C169G U176C, the reverse-splicing fitness stood at 0.0281.

As for C82G A111G C150U C169A, the reverse-splicing fitness is 0.0104.

Take C82G A111G C150U C169U: the reverse-splicing fitness was determined as 0.0123.

With C82G A111G C150U C169G, the reverse-splicing fitness was 0.00932.

Regarding C82G A111U A120C A145U C150G C169U U176G, the reverse-splicing fitness amounted to 0.00561.

On to C82G A111U A120C A145U C150G C169U U176A, for which the reverse-splicing fitness was 0.0083.

Turning to C82G A111U A120C A145U C150G C169U U176C, the reverse-splicing fitness is 0.0123.

On to C82G A111U A120C A145C C169U U176G, for which the reverse-splicing fitness amounted to 0.00455.

Turning to C82G A111U A120C A145C C169U U176C, the reverse-splicing fitness was determined as 0.0128.

Consider C82G A111U A120C A145C C169U U176A, for which the reverse-splicing fitness was determined as 0.0148.

In the case of C82G A111U A120C A145C C150A U176A, the reverse-splicing fitness is 0.0111.

Turning to C82G A111U A120C A145C C150A U176G, the reverse-splicing fitness amounted to 0.0066.

Turning to C82G A111U A120C A145C C150A U176C, the reverse-splicing fitness came to 0.0127.

For C82G A111U A120C A145G C150A C169A U176A, the reverse-splicing fitness stood at 0.02.

Consider C82G A111U A120C A145G C150A C169A U176C, for which the reverse-splicing fitness was 0.026.

Consider C82G A111U A120C A145G C150A C169A U176G, for which the reverse-splicing fitness was 0.00968.

With C82G A111U A120C C150U C169G, the reverse-splicing fitness worked out at 0.00965.

On to C82G A111U A120C C150U C169U, for which the reverse-splicing fitness was 0.0125.

Consider C82G A111U A120C C150U C169A, for which the reverse-splicing fitness was found to be 0.0105.

For the variant C82G A111G C150G C169U, the reverse-splicing fitness is 0.0107.

For C82G A111G C150G C169G, the reverse-splicing fitness turned out to be 0.00817.

Take C82G A111G C150G C169A: the reverse-splicing fitness amounted to 0.00975.

Regarding C82G A111U A120C A145U C169A U176G, the reverse-splicing fitness worked out at 0.00591.

On to C82G A111U A120C A145U C169A U176C, for which the reverse-splicing fitness amounted to 0.0142.

As to C82G A111U A120C A145U C169A U176A, the reverse-splicing fitness was 0.015.

Turning to C82G A111U A120C C150A C169G, the reverse-splicing fitness was 0.00894.

In the case of C82G A111U A120C C150A C169A, the reverse-splicing fitness worked out at 0.0127.

Take C82G A111U A120C C150A C169U: the reverse-splicing fitness amounted to 0.0114.

In the case of C82G A111U A120C A145C C169G U176C, the reverse-splicing fitness came to 0.0236.

Turning to C82G A111U A120C A145C C169G U176G, the reverse-splicing fitness worked out at 0.00667.

For C82G A111U A120C A145C C169G U176A, the reverse-splicing fitness is 0.0301.

For the variant C82G A111U A120C A145C C150G C169A, the reverse-splicing fitness was 0.0104.

Consider C82G A111U A120C A145C C150G C169G, for which the reverse-splicing fitness was 0.00735.

Turning to C82G A111U A120C A145C C150G C169U, the reverse-splicing fitness was 0.00834.

For C82G A111U A120C A145C C150U C169G U176A, the reverse-splicing fitness came out at 0.0279.

Turning to C82G A111U A120C A145C C150U C169G U176C, the reverse-splicing fitness was 0.0221.

For the variant C82G A111U A120C A145C C150U C169G U176G, the reverse-splicing fitness was 0.00776.

In the case of C82G A111G C150U C169A U176C, the reverse-splicing fitness was found to be 0.0178.

Take C82G A111G C150U C169A U176G: the reverse-splicing fitness is 0.00685.

As for C82G A111G C150U C169A U176A, the reverse-splicing fitness turned out to be 0.0173.

Consider C82G A111G A145U U176G, for which the reverse-splicing fitness turned out to be 0.136.

For the variant C82G A111G C150G C169G U176A, the reverse-splicing fitness was determined as 0.0106.

On to C82G A111G C150G C169G U176G, for which the reverse-splicing fitness came out at 0.00613.

On to C82G A111G C150G C169G U176C, for which the reverse-splicing fitness amounted to 0.00922.

In the case of C82G A111U A120C C150A C169U U176A, the reverse-splicing fitness amounted to 0.018.

With C82G A111U A120C C150A C169U U176C, the reverse-splicing fitness was 0.0159.

As for C82G A111U A120C C150A C169U U176G, the reverse-splicing fitness was 0.00816.

C82G A111U A120C A145G C150U C169A U176G: the reverse-splicing fitness was found to be 0.00812.

As for C82G A111U A120C A145G C150U C169A U176A, the reverse-splicing fitness was 0.0177.

As for C82G A111U A120C A145G C150U C169A U176C, the reverse-splicing fitness was determined as 0.0177.
